Results: paper PMC2094093

Molecular target: Human Hsp90β (human) (UniProt P08238)
Experiment: SEC

Human Hsp90β, P08238 1-724 (natural protein; other documents disagree on this pair), sequence (P08238 whole entry): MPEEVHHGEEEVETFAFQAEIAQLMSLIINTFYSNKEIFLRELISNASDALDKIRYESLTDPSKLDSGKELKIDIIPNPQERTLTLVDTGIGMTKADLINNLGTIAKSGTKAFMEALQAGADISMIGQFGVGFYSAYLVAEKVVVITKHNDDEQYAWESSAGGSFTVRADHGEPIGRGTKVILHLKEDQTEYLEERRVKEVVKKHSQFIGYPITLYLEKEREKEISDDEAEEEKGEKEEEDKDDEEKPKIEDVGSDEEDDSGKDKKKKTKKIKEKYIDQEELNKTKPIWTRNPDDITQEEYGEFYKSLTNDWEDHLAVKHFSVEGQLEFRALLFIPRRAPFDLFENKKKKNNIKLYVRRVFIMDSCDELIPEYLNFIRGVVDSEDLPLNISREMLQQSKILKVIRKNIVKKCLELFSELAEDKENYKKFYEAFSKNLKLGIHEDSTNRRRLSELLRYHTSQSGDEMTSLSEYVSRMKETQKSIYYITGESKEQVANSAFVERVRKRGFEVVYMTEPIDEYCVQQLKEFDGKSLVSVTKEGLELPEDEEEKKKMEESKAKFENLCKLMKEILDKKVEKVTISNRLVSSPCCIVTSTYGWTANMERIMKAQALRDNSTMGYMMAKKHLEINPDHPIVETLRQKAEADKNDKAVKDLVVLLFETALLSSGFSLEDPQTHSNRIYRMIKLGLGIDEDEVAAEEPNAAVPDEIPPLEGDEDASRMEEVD

Human Hsp90β, P08238 1-724 (natural protein; other documents disagree on this pair)
stoichiometry N: 2
